Source: patent US20090099029A1, “Methods and substrates for conducting assays” (Invitrogen Corporation, priority 2005, published 2009)

Tested on: kinases of Table 6 on Myelin Basic Protein (MBP)
Test: Kinase assay using MBP substrate, ProQ Diamond stain (Table 6)
Assay type: biochemical
Settings: kinase printed on MBP-coated slide; 20 uM ATP, 30° C.; ProQ Diamond Microarray Stain; graded Strong/Weak/Negative
Method in brief: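 Bovine dephosphorylated MBP coated on aldehyde- or epoxy-glass slides, kinases printed on top; reaction buffer pH 7.5 with 4 mM MgCl2, 20 uM ATP, 5% DMSO, ± inhibitor, at 30° C. Phosphorylation detected by ProQ Diamond stain, 30 min in dark.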

B1: EPHA8 (protein)
chain: KKRHCGYSKAFQDSDEEKMHYQNGQAPPPVFLPLHHPPGKLPEPQFYAEPHTYEEPGRAGRSFTREIEASRIHIEKIIGSGDSGEVCYGRLRVPGQRDVPVAIKALKAGYTERQRRDFLSEASIMGQFDHPNIIRLEGVVTRGRLAMIVTEYMENGSLDTFLRTHDGQFTIMQLVGMLRGVGAGMRYLSDLGYVHRDLAARNVLVDSNLVCKVSDFGLSRVLEDDPDAAYTTTGGKIPIRWTAPEAIAFRTFSSASDVWSFGVVMWEVLAYGERPYWNMTNRDVISSVEEGYRLPAPMGCPHALHQLMLDCWHKDRAQRPRFSQIVSVLDALIRSPESLRATATVSRCPPPAFVRSCFDLRGGSGGGGGLTVGDWLDSIRMGRYRDHFAAGGYSSLGMVLRMNAQDVRALGITLMGHQKKILGSIQTMRAQLTSTQGPRRHL
modifications: left off: a dimerising Fc or GST
Q: For B1, which “MBP Kinase Activity” value is on record?
A: Weak

B2: MYLK2 (protein)
chain: MATENGAVELGIQNPSTDKAPKGPTGERPLAAGKDPGPPDPKKAPDPPTLKKDAKAPASEKGDGTLAQPSTSSQGPKGEGDRGGGPAEGSAGPPAALPQQTATPETSVKKPKAEQGASGSQDPGKPRVGKKAAEGQAAARRGSPAFLHSPSCPAIISSSEKLLAKKPPSEASELTFEGVPMTHSPTDPRPAKAEEGKNILAESQKEVGEKTPGQAGQAKMQGDTSRGIEFQAVPSEKSEVGQALCLTAREEDCFQILDDCPPPPAPFPHRMVELRTGNVSSEFSMNSKEALGGGKFGAVCTCMEKATGLKLAAKVIKKQTPKDKEMVLLEIEVMNQLNHRNLIQLYAAIETPHEIVLFMEYIEGGELFERIVDEDYHLTEVDTMVFVRQICDGILFMHKMRVLHLDLKPENILCVNTTGHLVKIIDFGLARRYNPNEKLKVNFGTPEFLSPEVVNYDQISDKTDMWSMGVITYMLLSGLSPFLGDDDTETLNNVLSGNWYFDEETFEAVSDEAKDFVSNLIVKDQRARMNAAQCLAHPWLNNLAEKAKRCNRRLKSQILLKKYLMKRRWKKNFIAVSAANRFKKISSSGALMALGV
modifications: left off: a dimerising Fc or GST
Q: B2 was tested. Which “MBP Kinase Activity” value did it give?
A: Negative

B3: EPHB1 (protein)
chain: SRKRAYSKEAVYSDKLQHYSTGRGSPGMKIYIDPFTYEDPNEAVREFAKEIDVSFVKIEEVIGAGEFGEVYKGRLKLPGKREIYVAIKTLKAGYSEKQRRDFLSEASIMGQFDHPNIIRLEGVVTKSRPVMIITEFMENGALDSFLRQNDGQFTVIQLVGMLRGIAAGMKYLAEMNYVHRDLAARNILVNSNLVCKVSDFGLSRYLQDDTSDPTYTSSLGGKIPVRWTAPEAIAYRKFTSASDVWSYGIVMWEVMSFGERPYWDMSNQDVINAIEQDYRLPPPMDCPAALHQLMLDCWQKDRNSRPRFAEIVNTLDKMIRNPASLKTVATITAVPSQPLLDRSIPDFTAFTTVDDWLSAIKMVQYRDSFLTAGFTSLQLVTQMTSEDLLRIGITLAGHQKKILNSIHSMRVQISQSPTAMA
modifications: left off: a dimerising Fc or GST
Q: B3 was tested. Which “MBP Kinase Activity” value did it give?
A: Strong

B4: NEK3 (protein)
chain: MDDYMVLRMIGEGSFGRALLVQHESSNQMFAMKEIRLPKSFSNTQNSRKEAVLLAKMKHPNIVAFKESFEAEGHLYIVMEYCDGGDLMQKIKQQKGKLFPEDMILNWFTQMCLGVNHIHKKRVLHRDIKSKNIFLTQNGKVKLGDFGSARLLSNPMAFACTYVGTPYYVPPEIWENLPYNNKSDIWSLGCILYELCTLKHPFQANSWKNLILKVCQGCISPLPSHYSYELQFLVKQMFKRNPSHRPSATTLLSRGIVARLVQKCLPPEIIMEYGEEVLEEIKNSKHNTPRKKTNPSRIRIALGNEASTVQEEEQDRKGSHTDLESINENLVESALRRVNREEKGNKSVHLRKASSPNLHRRQWEKNVPNTALTALENASILTSSLTAEDDRGGSVIKYSKNTTRKQWLKETPDTLLNILKNADLSLAFQTYTIYRPGSEGFLKGPLSEETEASDSVDGGHDSVILDPERLEPGLDEEDTDFEEEDDNPDWVSELKKRAGWQGLCDR
modifications: left off: a dimerising Fc or GST
Q: For B4, which “MBP Kinase Activity” value is on record?
A: Negative

B5: PLK3 (protein)
chain: SGRTYLKGRLLGKGGFARCYEATDTETGSAYAVKVIPQSRVAKPHQREKILNEIELHRDLQHRHIVRFSHHFEDADNIYIFLELCSRKSLAHIWKARHTLLEPEVRYYLRQILSGLKYLHQRGILHRDLKLGNFFITENMELKVGDFGLAARLEPPEQRKKTICGTPNYVAPEVLLRQGHGPEADVWSLGCVMYTLLCGSPPFETADLKETYRCIKQVHYTLPASLSLPARQLLAAILRASPRDRPSIDQILRHDFFTKGYTPDRLPISSCVTVPDLTPPNPA
modifications: left off: a dimerising Fc or GST
Q: Which “MBP Kinase Activity” value does the source give for B5 here?
A: Negative

B6: PAK3 (protein)
chain: MSDGLDNEEKPPAPPLRMNSNNRDSSALNHSSKPLPMAPEEKNKKARLRSIFPGGGDKTNKKKEKERPEISLPSDFEHTIHVGFDAVTGEFTGIPEQWARLLQTSNITKLEQKKNPQAVLDVLKFYDSKETVNNQKYMSFTSGDKSAHGYIAAHPSSTKTASEPPLAPPVSEEEDEEEEEEEDENEPPPVIAPRPEHTKSIYTRSVVESIASPAVPNKEVTPPSAENANSSTLYRNTDRQRKKSKMTDEEILEKLRSIVSVGDPKKKYTRFEKIGQGASGTVYTALDIATGQEVAIKQMNLQQQPKKELIINEILVMRENKNPNIVNYLDSYLVGDELWVVMEYLAGGSLTDVVTETCMDEGQIAAVCRECLQALDFLHSNQVIHRDIKSDNILLGMDGSVKLTDFGFCAQITPEQSKRSTMVGTPYWMAPEVVTRKAYGPKVDIWSLGIMAIEMVEGEPPYLNENPLRALYLIATNGTPELQNPERLSAVFRDFLNRCLEMDVDRRGSAKELLQHPFLKLAKPLSSLTPLIIAAKEAIKNSSR
modifications: left off: small tags and cut ends
Q: How did the “MBP Kinase Activity” value turn out when B6 was run?
A: Weak

B7: NEK2 (protein)
chain: MPSRAEDYEVLYTIGTGSYGRCQKIRRKSDGKILVWKELDYGSMTEAEKQMLVSEVNLLRELKHPNIVRYYDRIIDRTNTTLYIVMEYCEGGDLASVITKGTKERQYLDEEFVLRVMTQLTLALKECHRRSDGGHTVLHRDLKPANVFLDGKQNVKLGDFGLARILNHDTSFAKTFVGTPYYMSPEQMNRMSYNEKSDIWSLGCLLYELCALMPPFTAFSQKELAGKIREGKFRRIPYRYSDELNEIITRMLNLKDYHRPSVEEILENPLIADLVADEQRRNLERRGRQLGEPEKSQDSSPVLSELKLKEIQLQERERALKAREERLEQKEQELCVRERLAEDKLARAENLLKNYSLLKERKFLSLASNPELLNLPSSVIKKKVHFSGESKENIMRSENSESQLTSKSKCKDLKKRLHAAQLRAQALSDIEKNYQLKSRQILGMR
modifications: left off: small tags and cut ends
Q: With B7 as the molecule, how does the “MBP Kinase Activity” value read?
A: Strong

B8: PAK1 (protein)
chain: MSNNGLDIQDKPPAPPMRNTSTMIGAGSKDAGTLNHGSKPLPPNPEEKKKKDRFYRSILPGDKTNKKKEKERPEISLPSDFEHTIHVGFDAVTGEFTGMPEQWARLLQTSNITKSEQKKNPQAVLDVLEFYNSKKTSNSQKYMSFTDKSAEDYNSSNALNVKAVSETPAVPPVSEDEDDDDDDATPPPVIAPRPEHTKSVYTRSVIEPLPVTPTRDVATSPISPTENNTTPPDALTRNTEKQKKKPKMSDEEILEKLRSIVSVGDPKKKYTRFEKIGQGASGTVYTAMDVATGQEVAIKQMNLQQQPKKELIINEILVMRENKNPNIVNYLDSYLVGDELWVVMEYLAGGSLTDVVTETCMDEGQIAAVCRECLQALEFLHSNQVIHRDIKSDNILLGMDGSVKLTDFGFCAQITPEQSKRSTMVGTPYWMAPEVVTRKAYGPKVDIWSLGIMAIEMIEGEPPYLNENPLRALYLIATNGTPELQNPEKLSAIFRDFLNRCLEMDVEKRGSAKELLQHQFLKIAKPLSSLTPLIAAAKEATKNNH
modifications: left off: a dimerising Fc or GST
Q: How did the “MBP Kinase Activity” value turn out when B8 was run?
A: Negative

B9: MINK1 (protein)
chain: MGDPAPARSLDDIDLSALRDPAGIFELVEVVGNGTYGQVYKGRHVKTGQLAAIKVMDVTEDEEEEIKQEINMLKKYSHHRNIATYYGAFIKKSPPGNDDQLWLVMEFCGAGSVTDLVKNTKGNALKEDCIAYICREILRGLAHLHAHKVIHRDIKGQNVLLTENAEVKLVDFGVSAQLDRTVGRRNTFIGTPYWMAPEVIACDENPDATYDYRSDIWSLGITAIEMAEGAPPLCDMHPMRALFLIPRNPPPRLKSKKWSKKFIDFIDTCLIKTYLSRPPTEQLLKFPFIRDQPTERQVRIQLKDHIDRSRKKRGEKEETE
modifications: left off: a dimerising Fc or GST
Q: B9 was tested. Which “MBP Kinase Activity” value did it give?
A: Weak

B10: PAK6 (protein)
chain: MFRKKKKKRPEISAPQNFQHRVHTSFDPKEGKFVGLPPQWQNILDTLRRPKPVVDPSRITRVQLQPMKTVVRGSAMPVDGYISGLLNDIQKLSVISSNTLRGRSPTSRRRAQSLGLLGDEHWATDPDMYLQSPQSERTDPHGLYLSCNGGTPAGHKQMPWPEPQSPRVLPNGLAAKAQSLGPAEFQGASQRCLQLGACLQSSPPGASPPTGTNRHGMKAAKHGSEEARPQSCLVGSATGRPGGEGSPSPKTRESSLKRRLFRSMFLSTAATAPPSSSKPGPPPQSKPNSSFRPPQKDNPPSLVAKAQSLPSDQPVGTFSPLTTSDTSSPQKSLRTAPATGQLPGRSSPAGSPRTWHAQISTSNLYLPQDPTVAKGALAGEDTGVVTHEQFKAALRMVVDQGDPRLLLDSYVKIGEGSTGIVCLAREKHSGRQVAVKMMDLRKQQRRELLFNEVVIMRDYQHFNVVEMYKSYLVGEELWVLMEFLQGGALTDIVSQVRLNEEQIATVCEAVLQALAYLHAQGVIHRDIKSDSILLTLDGRVKLSDFGFCAQISKDVPKRKSLVGTPYWMAPEVISRSLYATEVDIWSLGIMVIEMVDGEPPYFSDSPVQAMKRLRDSPPPKLKNSHKVSPVLRDFLERMLVRDPQERATAQELLDHPFLLQTGLPECLVPLIQLYRKQTSTC
modifications: left off: small tags and cut ends
Q: For B10, which “MBP Kinase Activity” value is on record?
A: Negative

B11: PHKG2 (protein)
chain: MTLDVGPEDELPDWAAAKEFYQKYDPKDVIGRGVSSVVRRCVHRATGHEFAVKIMEVTAERLSPEQLEEVREATRRETHILRQVAGHPHIITLIDSYESSSFMFLVFDLMRKGELFDYLTEKVALSEKETRSIMRSLLEAVSFLHANNIVHRDLKPENILLDDNMQIRLSDFGFSCHLEPGEKLRELCGTPGYLAPEILKCSMDETHPGYGKEVDLWACGVILFTLLAGSPPFWHRRQILMLRMIMEGQYQFSSPEWDDRSSTVKDLISRLLQVDPEARLTAEQALQHPFFERCEGSQPWNLTPRQRFRVAVWTVLAAGRVALSTHRVRPLTKNALLRDPYALRSVRHLIDNCAFRLYGHWVKKGEQQNRAALFQHRPPGPFPIMGPEEEGDSAAITEDEAVLVLG
modifications: left off: small tags and cut ends
Q: With B11 as the molecule, how does the “MBP Kinase Activity” value read?
A: Negative
